From article PMC5855441, “Detection of Thrombin Based on Fluorescence Energy Transfer between Semiconducting Polymer Dots and BHQ-Labelled Aptamers”

Target: thrombin (UniProt P00734;P00734 328-363;364-622)
Assay: fluorescence turn-on (FRET Pdots to BHQ-aptamer); 130 nM thrombin, Pdots present; F/F0 = 6.5; Buffer, salt and pH not given in the material (Hepes listed as reagent); incubation 60 min; Pdots-BHQ-TBA quenching plot at 298 K

B1: BHQ-TBA (BHQ-labelled thrombin aptamer) (ssDNA)
DNA: GGTTGGTGTGGTTGG
- binding result: binds
